Assay [1] concerns the target T1, trimeric murine IL-2 receptor (IL-2Rα, IL-2Rβ, and IL-2Rγ) on CTLL-2 cells (murine, UniProt P01590 22-268; P16297 27-539; P34902 23-369).
T1 sequence (looked up) 1: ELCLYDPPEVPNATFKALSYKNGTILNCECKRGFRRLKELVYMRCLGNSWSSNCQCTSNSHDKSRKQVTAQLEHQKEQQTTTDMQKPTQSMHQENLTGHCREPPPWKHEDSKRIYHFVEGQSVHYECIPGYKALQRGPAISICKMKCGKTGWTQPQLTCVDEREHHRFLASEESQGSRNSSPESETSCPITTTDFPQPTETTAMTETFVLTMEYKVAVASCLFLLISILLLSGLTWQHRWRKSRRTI
T1 sequence (looked up) 2: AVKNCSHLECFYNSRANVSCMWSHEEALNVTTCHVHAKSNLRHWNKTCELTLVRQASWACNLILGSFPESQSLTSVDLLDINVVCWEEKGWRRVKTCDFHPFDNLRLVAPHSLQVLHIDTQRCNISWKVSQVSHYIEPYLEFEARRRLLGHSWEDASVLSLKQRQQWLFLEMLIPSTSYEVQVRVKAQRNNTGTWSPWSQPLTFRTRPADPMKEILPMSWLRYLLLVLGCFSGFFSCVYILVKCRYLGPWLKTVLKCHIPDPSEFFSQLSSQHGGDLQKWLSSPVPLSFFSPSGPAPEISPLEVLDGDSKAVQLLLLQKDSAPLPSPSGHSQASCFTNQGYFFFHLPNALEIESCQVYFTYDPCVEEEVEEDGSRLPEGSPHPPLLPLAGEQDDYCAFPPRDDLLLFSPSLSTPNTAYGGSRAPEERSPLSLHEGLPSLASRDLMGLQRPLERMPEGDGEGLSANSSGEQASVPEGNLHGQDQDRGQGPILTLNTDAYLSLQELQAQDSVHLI
T1 sequence (looked up) 3: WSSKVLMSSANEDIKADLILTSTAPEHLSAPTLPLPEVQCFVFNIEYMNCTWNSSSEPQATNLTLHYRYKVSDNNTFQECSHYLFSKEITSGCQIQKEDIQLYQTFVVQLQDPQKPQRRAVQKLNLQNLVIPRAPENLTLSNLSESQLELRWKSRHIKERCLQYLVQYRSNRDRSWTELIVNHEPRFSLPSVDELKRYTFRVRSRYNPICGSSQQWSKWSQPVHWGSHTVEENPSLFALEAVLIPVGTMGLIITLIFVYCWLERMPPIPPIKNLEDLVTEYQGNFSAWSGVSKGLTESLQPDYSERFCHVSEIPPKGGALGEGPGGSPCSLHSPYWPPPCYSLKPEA
The assay can be described thus: cell-based or functional assay.

Assay [2] addresses T2, IL-2Rαβγ on KHYG-1 cells (human NK leukemia cell line that expresses IL-2Rα, β, and γ) (human, UniProt P01589 22-272; P14784 27-551; P31785 23-369).
T2 sequence (looked up) 1: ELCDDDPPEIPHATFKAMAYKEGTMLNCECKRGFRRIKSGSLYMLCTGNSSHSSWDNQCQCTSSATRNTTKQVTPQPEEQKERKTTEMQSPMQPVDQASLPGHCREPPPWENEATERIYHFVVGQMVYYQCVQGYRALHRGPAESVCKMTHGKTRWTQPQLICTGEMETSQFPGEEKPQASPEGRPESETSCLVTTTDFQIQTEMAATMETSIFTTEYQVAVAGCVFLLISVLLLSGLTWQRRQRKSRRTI
T2 sequence (looked up) 2: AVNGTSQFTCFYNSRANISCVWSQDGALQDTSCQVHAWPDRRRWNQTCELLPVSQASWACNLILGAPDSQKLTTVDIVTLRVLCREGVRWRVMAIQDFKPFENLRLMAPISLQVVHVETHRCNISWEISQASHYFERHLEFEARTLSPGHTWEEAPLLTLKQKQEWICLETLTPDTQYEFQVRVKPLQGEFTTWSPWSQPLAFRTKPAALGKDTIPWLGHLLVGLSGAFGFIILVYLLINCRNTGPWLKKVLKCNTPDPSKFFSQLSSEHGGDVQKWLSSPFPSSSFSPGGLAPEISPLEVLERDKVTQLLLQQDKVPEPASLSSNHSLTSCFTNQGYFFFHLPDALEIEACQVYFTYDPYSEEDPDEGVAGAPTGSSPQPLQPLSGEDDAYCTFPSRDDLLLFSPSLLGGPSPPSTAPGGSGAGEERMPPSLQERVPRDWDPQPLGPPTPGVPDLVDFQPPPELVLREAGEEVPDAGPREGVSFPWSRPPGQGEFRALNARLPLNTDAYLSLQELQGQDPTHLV
T2 sequence (looked up) 3: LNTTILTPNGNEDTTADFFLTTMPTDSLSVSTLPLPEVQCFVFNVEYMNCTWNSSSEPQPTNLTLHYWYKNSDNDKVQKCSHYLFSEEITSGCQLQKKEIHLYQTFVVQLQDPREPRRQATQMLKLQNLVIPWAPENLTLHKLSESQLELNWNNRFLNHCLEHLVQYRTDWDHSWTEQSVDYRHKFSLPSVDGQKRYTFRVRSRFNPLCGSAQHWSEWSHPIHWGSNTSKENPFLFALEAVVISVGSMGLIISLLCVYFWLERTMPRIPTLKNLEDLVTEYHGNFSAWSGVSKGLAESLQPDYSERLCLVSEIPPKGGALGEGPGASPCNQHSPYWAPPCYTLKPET
The assay can be described thus: cell-based or functional assay.

Assay [3] has as its target T3, IL-2Rα (recombinant IL-2 receptor α, R&D Systems Cat #: 223-2A/CF), biotinylated (human, UniProt P01589 22-213, limits assumed, biotinylated using sulfo-NHS-LC-LC-Biotin).
T3 construct: Bought reagent; also used here as the IL-2Rα partner of the in-silico analysis of PDB 2B5I (another construct); also called IL-2RA; CD25
T3 sequence (looked up): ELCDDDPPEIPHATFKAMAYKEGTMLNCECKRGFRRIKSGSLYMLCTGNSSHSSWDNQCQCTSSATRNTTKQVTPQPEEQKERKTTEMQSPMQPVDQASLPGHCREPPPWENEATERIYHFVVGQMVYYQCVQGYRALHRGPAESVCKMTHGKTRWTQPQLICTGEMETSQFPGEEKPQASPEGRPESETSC
The assay can be described thus: SPR (Biacore), CM4 chip, biotinylated receptor on neutravidin.

For assay [4], the target named is T4, IL-2Rβγ heterodimer, custom biotinylated Fc fusion protein (human IL-2Rβ 27-240-Fc-FLAG / human IL-2Rγ … (human, site-specific biotinylation at the AviTag)).
T4 construct: Extracellular regions fused to IgG1 knob-in-hole Fc subunits with tags; also called IL-2 receptor βγ heterodimer; Fc-IL-2Rβγ
Described as above.

B1: Fc-IL-2v heterodimer 107.46 (hIL-2v_Δ1-5_F42A_E62A_C125S) (Fc fusion)
chain 1: ESKYGPPCPPCPAPEAAGGPSVFLFPPKPKDTLMISRTPEVTCVVVDVSQEDPEVQFNWYVDGVEVHNAKTKPREEQFNSTYRVVSVLTVLHQDWLNGKEYKCKVSNKGLPSSIEKTISKAKGQPREPQVYTLPPSQEEMTKNQVSLWCLVKGFYPSDIAVEWESNGQPENNYKTTPPVLDSDGSFFLYSRLTVDKSRWQEGNVFSCSVMHEALHNHYTQKSLSLSLGGGGGSGGGGSGGGGSGGGGSSTKKTQLQLEHLLLDLQMILNGINNYKNPKLTRMLTAKFYMPKKATELKHLQCLEEALKPLEEVLNLAQSKNFHLRPRDLISNINVIVLELKGSETTFMCEYADETATIVEFLNRWITFSQSIISTLT
chain 2: ESKYGPPCPPCPAPEAAGGPSVFLFPPKPKDTLMISRTPEVTCVVVDVSQEDPEVQFNWYVDGVEVHNAKTKPREEQFNSTYRVVSVLTVLHQDWLNGKEYKCKVSNKGLPSSIEKTISKAKGQPREPQVYTLPPSQEEMTKNQVSLSCAVKGFYPSDIAVEWESNGQPENNYKTTPPVLDSDGSFFLVSRLTVDKSRWQEGNVFSCSVMHEALHNRFTQKSLSLSLGK
notes: hIgG4 knob-in-hole Fc heterodimer, one IL-2v on the knob chain
As for B1, the “STAT5 activation of CTLL-2 cells, EC50” value in assay [1] stood at 25.5 nM. Further, the “Proliferation of KHYG-1 NK cells, EC50” value in assay [2] turned out to be 0.235 nM. In addition, the Kd in assay [3] was more than 60000 nM; in assay [4] it was 0.069 nM.

B2: Fc-IL-2v heterodimer 108.46 (hIL-2v_Δ1-5_F42A_Y45G_E62A_C125S) (Fc fusion)
chain 1: ESKYGPPCPPCPAPEAAGGPSVFLFPPKPKDTLMISRTPEVTCVVVDVSQEDPEVQFNWYVDGVEVHNAKTKPREEQFNSTYRVVSVLTVLHQDWLNGKEYKCKVSNKGLPSSIEKTISKAKGQPREPQVYTLPPSQEEMTKNQVSLWCLVKGFYPSDIAVEWESNGQPENNYKTTPPVLDSDGSFFLYSRLTVDKSRWQEGNVFSCSVMHEALHNHYTQKSLSLSLGGGGGSGGGGSGGGGSGGGGSSTKKTQLQLEHLLLDLQMILNGINNYKNPKLTRMLTAKFGMPKKATELKHLQCLEEALKPLEEVLNLAQSKNFHLRPRDLISNINVIVLELKGSETTFMCEYADETATIVEFLNRWITFSQSIISTLT
chain 2: ESKYGPPCPPCPAPEAAGGPSVFLFPPKPKDTLMISRTPEVTCVVVDVSQEDPEVQFNWYVDGVEVHNAKTKPREEQFNSTYRVVSVLTVLHQDWLNGKEYKCKVSNKGLPSSIEKTISKAKGQPREPQVYTLPPSQEEMTKNQVSLSCAVKGFYPSDIAVEWESNGQPENNYKTTPPVLDSDGSFFLVSRLTVDKSRWQEGNVFSCSVMHEALHNRFTQKSLSLSLGK
notes: as for B1
On to B2, for which the “STAT5 activation of CTLL-2 cells, EC50” value in assay [1] worked out at 41.4 nM. Also, the “Proliferation of KHYG-1 NK cells, EC50” value in assay [2] came out at 0.191 nM. Binding in assay [4] was characterised by a dissociation constant (Kd) of 0.062 nM.

B3: Fc-IL-2v heterodimer 113.46 (hIL-2v_Δ1-5_R38G_E62A_C125S) (Fc fusion)
chain 1: ESKYGPPCPPCPAPEAAGGPSVFLFPPKPKDTLMISRTPEVTCVVVDVSQEDPEVQFNWYVDGVEVHNAKTKPREEQFNSTYRVVSVLTVLHQDWLNGKEYKCKVSNKGLPSSIEKTISKAKGQPREPQVYTLPPSQEEMTKNQVSLWCLVKGFYPSDIAVEWESNGQPENNYKTTPPVLDSDGSFFLYSRLTVDKSRWQEGNVFSCSVMHEALHNHYTQKSLSLSLGGGGGSGGGGSGGGGSGGGGSSTKKTQLQLEHLLLDLQMILNGINNYKNPKLTGMLTFKFYMPKKATELKHLQCLEEALKPLEEVLNLAQSKNFHLRPRDLISNINVIVLELKGSETTFMCEYADETATIVEFLNRWITFSQSIISTLT
chain 2: ESKYGPPCPPCPAPEAAGGPSVFLFPPKPKDTLMISRTPEVTCVVVDVSQEDPEVQFNWYVDGVEVHNAKTKPREEQFNSTYRVVSVLTVLHQDWLNGKEYKCKVSNKGLPSSIEKTISKAKGQPREPQVYTLPPSQEEMTKNQVSLSCAVKGFYPSDIAVEWESNGQPENNYKTTPPVLDSDGSFFLVSRLTVDKSRWQEGNVFSCSVMHEALHNRFTQKSLSLSLGK
notes: as for B1
In the case of B3, the “STAT5 activation of CTLL-2 cells, EC50” value in assay [1] stood at 3.1 nM. Also, the “Proliferation of KHYG-1 NK cells, EC50” value in assay [2] was found to be 0.344 nM. The molecule also registered a Kd in assay [4] of 0.072 nM.

B4: Fc-IL-2v heterodimer 114.46 (hIL-2v_Δ1-5_R38G_F42A_E62A_C125S) (Fc fusion)
chain 1: ESKYGPPCPPCPAPEAAGGPSVFLFPPKPKDTLMISRTPEVTCVVVDVSQEDPEVQFNWYVDGVEVHNAKTKPREEQFNSTYRVVSVLTVLHQDWLNGKEYKCKVSNKGLPSSIEKTISKAKGQPREPQVYTLPPSQEEMTKNQVSLWCLVKGFYPSDIAVEWESNGQPENNYKTTPPVLDSDGSFFLYSRLTVDKSRWQEGNVFSCSVMHEALHNHYTQKSLSLSLGGGGGSGGGGSGGGGSGGGGSSTKKTQLQLEHLLLDLQMILNGINNYKNPKLTGMLTAKFYMPKKATELKHLQCLEEALKPLEEVLNLAQSKNFHLRPRDLISNINVIVLELKGSETTFMCEYADETATIVEFLNRWITFSQSIISTLT
chain 2: ESKYGPPCPPCPAPEAAGGPSVFLFPPKPKDTLMISRTPEVTCVVVDVSQEDPEVQFNWYVDGVEVHNAKTKPREEQFNSTYRVVSVLTVLHQDWLNGKEYKCKVSNKGLPSSIEKTISKAKGQPREPQVYTLPPSQEEMTKNQVSLSCAVKGFYPSDIAVEWESNGQPENNYKTTPPVLDSDGSFFLVSRLTVDKSRWQEGNVFSCSVMHEALHNRFTQKSLSLSLGK
notes: as for B1
Regarding B4, the “STAT5 activation of CTLL-2 cells, EC50” value in assay [1] turned out to be 61.2 nM. Moreover, in assay [2], the “Proliferation of KHYG-1 NK cells, EC50” value was 0.336 nM. Moreover, the equilibrium dissociation constant (Kd) in assay [3] is more than 60000 nM; in assay [4] it was 0.076 nM.

The term Kd denotes the constant that tells how readily two partners part at equilibrium.

(Values after patent US20240269235A1 (Gilead, published 2024).)
